Data taken from PMC8805217, “Crystal structure of a hypothetical protein from Giardia lamblia” (Acta Crystallographica. Section F, Structural Biology …, 2022).

Target: the molecule itself
Experiment: crystal structure; X-ray, molecular replacement, 1.35 Å; sitting-drop vapor diffusion at 290 K, protein in 20 mM HEPES pH 7.0, 300 mM NaCl, 5% glycerol, 1 mM TCEP; reservoir 100 mM Tris pH 5.5, 25% PEG 3350, 200 mM ammonium acetate

B1: hypothetical protein from Giardia lamblia (GilaA.00312.a) (natural protein)
chain: GPGSMIYGILSKNLGMPTPTFLVCPDVVKFENVGQIAVVNGMVYLGGSVGIDKSGTLHKGLEEQTRQTFDNIRKCLEYANSGLDYIVSLNIFLSTSLSDSEEARFNELYREVFCVPATRPCRCCVRAQLQEGLLVEVVNVVAAQK
notes: hypothetical protein of Giardia lamblia GL50803_14299, 141 amino acids, amino acids 1-141 of UniProt A8BD71; Homotrimer in the crystal structure (PDB 3i3f); also called hypothetical G. lamblia protein; GL50803_14299; source: E. coli BL21(DE3)R3 Rosetta, purified (IMAC, 3C cleavage of the His tag, reverse IMAC, SEC); not shown: 6xHis, N-terminal, cleaved
For B1, which “stoichiometry N” value is on record?
The value was 3.
